Experimental data reported in patent US20200291126A1 (EUTILEX, published 2020).
Residue numbers refer to the chain shown, from its start. Values belong to the binder of their own block, whether it stands above or below them.

What was measured:
[1] = target: T1, V-Set And Immunoglobulin Domain Containing 4 (VSIG4) (human, UniProt Q9Y279 20-283, limits assumed); test: kinetic affinity measurement; method not stated at the table (SPR named for EU103.2 in FIG. 4B)
T1 construct: also called CRIg; Z39Ig
T1 sequence (looked up): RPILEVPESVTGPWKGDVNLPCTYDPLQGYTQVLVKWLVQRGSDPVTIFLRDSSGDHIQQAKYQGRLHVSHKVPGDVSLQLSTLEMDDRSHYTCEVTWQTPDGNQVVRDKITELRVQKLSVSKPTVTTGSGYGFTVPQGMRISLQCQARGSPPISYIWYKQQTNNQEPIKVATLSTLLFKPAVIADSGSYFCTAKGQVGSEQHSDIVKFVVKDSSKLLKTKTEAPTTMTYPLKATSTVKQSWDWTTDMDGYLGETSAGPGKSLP

[2] = target: T1, V-Set And Immunoglobulin Domain …; test: kinetic affinity measurement; method not stated

B1: EU103.2 antibody (antibody, V domains shown)
VH: QVQLQESGPGLVKPSQTLSLTCSFSGISLTTSGMGVGWIRQPPGKGLEWLADIFWDDNKYYNPSLKSRVTISVDTSKNQFSLKLSSVTAADTAVYYCVRVYYKNDGYFDVWGQGTLVTVSS
VL: EIVMTQSPATLSVSPGERATLSCRASKSVTTSGYSFMHWYQQKPGQAPRLLIYLASNLEPGIPARFSGSGSGTEFTLTISSLQSEDFAVYYCQHSRELPYTFGQGTKLEIK
notes: also called humanized anti-VSIG4 antibody generated from mouse anti-VSIG4 antibody mu6H8
Kd [1]: 71.6 nM | koff [1]: 0.0131 s⁻¹ | kon [1]: 183000 M⁻¹ s⁻¹

B2: A1 antibody (EU103_T01.01) (antibody, V domains shown)
VH: QVTLKESGPTLVKPTQTLTLTCTFSGISLTTSGMGVGWIRQPPGKALEWLADIFWDDNKYYNPSLKSRLTITKDTSKNQVVLTMTNMDPVDTATYYCVRVYYKNDGYFDVWGKGTTVTVSS
VL: DIVLTQSPLSLPVTLGQPASISCRASKSVTTSGYSFMHWYQQRPGQSPRLLIYLASNLEPGVPDRFSGSGSGTDFTLKISRVEAEDVGVYYCQQSGELPYTFGQGTKLEIK
Kd [2]: 8.69 nM | koff [2]: 0.00328 s⁻¹ | kon [2]: 378000 M⁻¹ s⁻¹

B3: A2 antibody (EU103_T01.02) (antibody, V domains shown)
VH: B2 VH
VL: B2 VL with S80F
Kd [2]: 8.23 nM | koff [2]: 0.00296 s⁻¹ | kon [2]: 360000 M⁻¹ s⁻¹

More lines, in order of falling Kd [2], values ahead:

Kd [2]: 7.95 nM | koff [2]: 0.0032 s⁻¹ | kon [2]: 402000 M⁻¹ s⁻¹
B4: A1.3 antibody (EU103_T01.01S) (antibody, V domains shown)
VH: B2 VH with K5V, T15G, S67G, V81Y
VL: B2 VL
notes: Generated from A1

Kd [2]: 7.64 nM | koff [2]: 0.00308 s⁻¹ | kon [2]: 404000 M⁻¹ s⁻¹
B5: A2.3 antibody (EU103_T01.02S) (antibody, V domains shown)
VH: B2 VH with K5V, T15G, S67G, V81Y
VL: B2 VL with S80F
notes: Generated from A2
